# Reference: the supplement of paper PMC9112550, “Optimization of the antimicrobial peptide Bac7 by deep mutational scanning” (BMC Biology, 2022)
# System: Escherichia coli TOP10
# Assay: shrunken log2 fold change of peptide-encoding DNA abundance (4.5 h post-induction vs induction); higher = less antimicrobial activity (less host growth inhibition)
# Details: time post-induction: 4.5 h; library: site-saturation at positions 5, 18, 19, 20
# 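Note: peptides expressed intracellularly from a pBAD plasmid library in pooled LB shake-flask culture, induced with 0.3% L-arabinose, DNA abundance read by NGS, three biological replicates, DESeq2 with apeglm shrinkage.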
row,Sequence,shrunken log2 fold change
1,RRIRQRPPRLPRPRPRPKYWPRP,-0.309
2,RRIRDRPPRLPRPRPRPCLFPRP,0.076
3,RRIRSRPPRLPRPRPRPGGGPRP,0.908
4,RRIRARPPRLPRPRPRPIGWPRP,0.488
5,RRIRWRPPRLPRPRPRPGSTPRP,0.161
6,RRIRDRPPRLPRPRPRPKLPPRP,0.0818
7,RRIRYRPPRLPRPRPRPHPSPRP,0.0761
8,RRIRERPPRLPRPRPRPHCPPRP,-0.0673
9,RRIRMRPPRLPRPRPRPNTNPRP,0.128
10,RRIRLRPPRLPRPRPRPMRFPRP,0.0595
11,RRIRNRPPRLPRPRPRPVRWPRP,0.703
12,RRIRYRPPRLPRPRPRPWDAPRP,-0.796
13,RRIRGRPPRLPRPRPRPRVVPRP,0.667
14,RRIRSRPPRLPRPRPRPGEGPRP,0.367
15,RRIRFRPPRLPRPRPRPGPTPRP,0.404
16,RRIRPRPPRLPRPRPRPLFLPRP,-0.0037
17,RRIRVRPPRLPRPRPRPQSVPRP,-0.0666
18,RRIRQRPPRLPRPRPRPAWPPRP,0.303
19,RRIRSRPPRLPRPRPRPCIMPRP,-0.105
20,RRIRERPPRLPRPRPRPCKTPRP,0.0029
21,RRIRTRPPRLPRPRPRPQWNPRP,-0.832
22,RRIRDRPPRLPRPRPRPWNCPRP,-0.3

row,Sequence,shrunken log2 fold change
1,RRIRKRPPRLPRPRPRPGHNPRP,-0.0457
2,RRIRDRPPRLPRPRPRPSQEPRP,0.111
3,RRIRPRPPRLPRPRPRPKQEPRP,0.138
4,RRIRKRPPRLPRPRPRPTTGPRP,0.733
5,RRIRSRPPRLPRPRPRPSALPRP,-0.0202
6,RRIRWRPPRLPRPRPRPGRIPRP,0.298
7,RRIRDRPPRLPRPRPRPLPIPRP,0.162
8,RRIRIRPPRLPRPRPRPPCNPRP,-0.449
9,RRIRIRPPRLPRPRPRPDMTPRP,-0.01
10,RRIRLRPPRLPRPRPRPRWWPRP,0.13
11,RRIRYRPPRLPRPRPRPGHGPRP,-0.111
12,RRIRGRPPRLPRPRPRPMCPPRP,0.0883
13,RRIRFRPPRLPRPRPRPGRYPRP,-0.0275
14,RRIRLRPPRLPRPRPRPQRAPRP,0.309
15,RRIRFRPPRLPRPRPRPNETPRP,-0.0424
16,RRIRNRPPRLPRPRPRPWCTPRP,-0.205
17,RRIRFRPPRLPRPRPRPFSEPRP,-0.0573
18,RRIRERPPRLPRPRPRPYKNPRP,-0.756
19,RRIRMRPPRLPRPRPRPSGIPRP,0.0258
20,RRIRKRPPRLPRPRPRPFFMPRP,0.112
21,RRIRLRPPRLPRPRPRPGMVPRP,-0.0517
22,RRIRGRPPRLPRPRPRPCVMPRP,0.516

row,Sequence,shrunken log2 fold change
1,RRIRSRPPRLPRPRPRPTEDPRP,0.14
2,RRIRLRPPRLPRPRPRPDLSPRP,-0.112
3,RRIRNRPPRLPRPRPRPIPYPRP,-0.0122
4,RRIRFRPPRLPRPRPRPQFMPRP,-1.06
5,RRIRLRPPRLPRPRPRPYNYPRP,-0.439
6,RRIRVRPPRLPRPRPRPMPMPRP,0.0529
7,RRIRGRPPRLPRPRPRPRVNPRP,0.394
8,RRIRGRPPRLPRPRPRPASVPRP,0.454
9,RRIRSRPPRLPRPRPRPFVFPRP,-0.102
10,RRIRSRPPRLPRPRPRPLHLPRP,-0.0832
11,RRIRFRPPRLPRPRPRPNNAPRP,-0.271
12,RRIRIRPPRLPRPRPRPCYYPRP,-0.272
13,RRIRCRPPRLPRPRPRPAARPRP,0.392
14,RRIRMRPPRLPRPRPRPLRFPRP,0.74
15,RRIRYRPPRLPRPRPRPGTDPRP,-0.0254
16,RRIRRRPPRLPRPRPRPQWGPRP,0.323
17,RRIRDRPPRLPRPRPRPKISPRP,-0.203
18,RRIRIRPPRLPRPRPRPMYAPRP,-0.191
19,RRIRTRPPRLPRPRPRPTICPRP,-0.401
20,RRIRVRPPRLPRPRPRPYQDPRP,-1.42
21,RRIRYRPPRLPRPRPRPKNEPRP,-0.372
22,RRIRARPPRLPRPRPRPEIKPRP,1.77

row,Sequence,shrunken log2 fold change
1,RRIRLRPPRLPRPRPRPWRGPRP,0.277
2,RRIRRRPPRLPRPRPRPLPAPRP,0.599
3,RRIRQRPPRLPRPRPRPNVKPRP,0.0117
4,RRIRWRPPRLPRPRPRPNRFPRP,-0.0274
5,RRIRERPPRLPRPRPRPVQVPRP,-0.227
6,RRIRTRPPRLPRPRPRPIHMPRP,-0.171
7,RRIRYRPPRLPRPRPRPPLCPRP,-0.173
8,RRIRTRPPRLPRPRPRPNQQPRP,0.00192
9,RRIRFRPPRLPRPRPRPHQNPRP,-0.182
10,RRIRMRPPRLPRPRPRPSINPRP,0.0424
11,RRIRERPPRLPRPRPRPRTCPRP,-0.0174
12,RRIRQRPPRLPRPRPRPDLHPRP,0.00152
13,RRIRQRPPRLPRPRPRPMHNPRP,-0.28
14,RRIRNRPPRLPRPRPRPCYKPRP,-0.173
15,RRIRFRPPRLPRPRPRPATEPRP,0.0616
16,RRIRGRPPRLPRPRPRPCFHPRP,-0.011
17,RRIRPRPPRLPRPRPRPQRPPRP,0.272
18,RRIRGRPPRLPRPRPRPPYCPRP,0.204
19,RRIRIRPPRLPRPRPRPSLHPRP,-0.824
20,RRIRWRPPRLPRPRPRPEVSPRP,0.269
21,RRIRIRPPRLPRPRPRPSKHPRP,-0.813
22,RRIRARPPRLPRPRPRPFWFPRP,0.0903

row,Sequence,shrunken log2 fold change
1,RRIRSRPPRLPRPRPRPINAPRP,-0.377
2,RRIRYRPPRLPRPRPRPPIMPRP,-1.14
3,RRIRDRPPRLPRPRPRPGSSPRP,0.0783
4,RRIRNRPPRLPRPRPRPPPKPRP,1.5
5,RRIRARPPRLPRPRPRPDHTPRP,-0.155
6,RRIRYRPPRLPRPRPRPVVLPRP,-0.397
7,RRIRDRPPRLPRPRPRPIPAPRP,0.0318
8,RRIRKRPPRLPRPRPRPPVFPRP,-0.00134
9,RRIRDRPPRLPRPRPRPGGTPRP,0.454
10,RRIRRRPPRLPRPRPRPIMFPRP,-0.0974
11,RRIRHRPPRLPRPRPRPFLTPRP,-0.217
12,RRIRHRPPRLPRPRPRPLYNPRP,-0.459
13,RRIRIRPPRLPRPRPRPTIMPRP,-0.745
14,RRIRGRPPRLPRPRPRPIKRPRP,0.171
15,RRIRQRPPRLPRPRPRPNPKPRP,-0.00731
16,RRIRFRPPRLPRPRPRPACRPRP,0.192
17,RRIRTRPPRLPRPRPRPLDSPRP,-0.0239
18,RRIRNRPPRLPRPRPRPMVDPRP,-0.131
19,RRIRGRPPRLPRPRPRPMLIPRP,0.312
20,RRIRERPPRLPRPRPRPQPIPRP,0.0322
21,RRIRRRPPRLPRPRPRPARGPRP,0.731
